Data published in patent publication US20190352411A1 (ALLIGATOR BIOSCIENCE, published 2019).
Where two headings read alike, the source gives them in different places.

What was measured:
[1] = molecular target: T1, recombinant human OX40 (R&D #1493-CD) (human, UniProt P43489 29-216, limits assumed); test: ELISA, coated OX40
T1 construct: Coated on ELISA plates
T1 sequence (looked up): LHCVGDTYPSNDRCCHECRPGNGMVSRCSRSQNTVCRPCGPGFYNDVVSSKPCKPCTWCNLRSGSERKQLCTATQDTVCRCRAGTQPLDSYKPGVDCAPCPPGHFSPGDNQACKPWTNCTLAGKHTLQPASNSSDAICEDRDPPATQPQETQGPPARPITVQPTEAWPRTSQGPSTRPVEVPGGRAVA
Experimental: (§1) Binding to TNFR superfamily members for which ELISA methods had already been established (CD40 and OX40) was evaluated to detect potential propensity to cross react to non-target proteins.
(§2) ELISA plates (Greiner #655074) were coated with 50 μl/well of recombinant human OX40 (R&D #1493-CD), CD40-Fc (Ancell #504-820) or CD137 (R&D #838-4B) diluted to a final concentration of 0.5 μg/ml in PBS for 1 h at 37° C. or overnight at 4° C. Plates were washed with PBS+0.05% TWEEN20 (PBST), followed by block with PBST+1% bovine serum albumin (BSA). Antibody samples were prepared as serial 1/10 dilutions from 10-0.01 μg/ml in PBST+1% BSA and incubated for 1 h in room temperature, followed by detection using a horse radish peroxidase-conjugated anti-human kappa light chain antibody (AbD Serotec # STAR127P) and developed using SuperSignal ELISA Pico Chemiluminescent substrate (Pierce ThermoScientific #37069).

[2] = molecular target: T2, CD40-Fc (Ancell #504-820) (human, UniProt P25942 21-193); test: ELISA, coated CD40-Fc
T2 construct: Coated on ELISA plates; not shown: Fc part of the commercial fusion protein; not described
Experimental: as §1, §2

[3] = molecular target: T3, recombinant human CD137-Fc (R&D #838-4B) (human, UniProt Q07011 24-186); test: ELISA, coated human CD137-Fc; mean
T3 construct: Bought protein coated on ELISA plates; also called CD137 (R&D #838-4B); not shown: Fc part of the commercial fusion protein; not described

[4] = molecular target: T4, cynomolgus CD137 on transfected CHO cells (CHO-cyCD137) (cynomolgus (Macaca fascicularis); human); test: flow cytometry on CHO-cyCD137 cells; 95% confidence interval of the EC50
T4 construct: extracellular domain;domain: transmembrane and intracellular part; also called cyno CD137

[5] = molecular target: T5, human CD137 on transfected CHO cells (CHO-huCD137) (human); test: flow cytometry on CHO-huCD137 cells; 95% confidence interval of the EC50
T5 construct: domain: transmembrane and intracellular part
Experimental: (§3) Binding and EC50 was determined using flow cytometric of CHO cells transfected with human CD137, cynomolgus CD137 or empty vector. The extracellular part of human or cynomolgus CD137 was fused to the transmembrane and intracellular part of human CD40 and cloned into pcDNA3.1. The vector was subsequently stably transfected into CHO cells. […] CD137-transfected and empty vector-transfected cells were incubated with CD137 antibodies for at least 1 h at 4° C. to saturate the binding. In order to minimize antibody internalization, 0.05% sodium azide was used in the incubation buffer and all work was performed on ice. The CD137 antibodies were detected using PE-conjugated anti-hIgG antibody (109-115-098, Jackson Immunoresearch laboratories), incubated for 30 min at 4° C. Directly after staining the cells were fixed with a paraformaldehyde solution (10× concentrate BD CellFIX, BD biosciences #340181). Cells were analyzed by flow cytometry using FACSVerse (BD Biosciences). The median fluorescence intensity (MFI) for each sample was determined and the dose response data was analysed using Graph Pad Prism.
(§4) MFI data was normalized for each antibody, where 0% is defined as the lowest value and 100% is the highest value in the dose titration for each antibody.

[6] = molecular target: T4, cynomolgus CD137 on transfected CHO …; test: flow cytometry on CHO-cyCD137 cells; 95% confidence interval of the EC50; remark: listed apart in the source
Experimental: as §3, §4

[7] = molecular target: T5, human CD137 on transfected CHO cells …; test: flow cytometry on CHO-huCD137 cells; 95% confidence interval of the EC50; remark: listed apart in the source
Experimental: as §3, §4

[8] = molecular target: T6, Human CD137 (R&D systems) (human, UniProt Q07011 24-186, limits assumed); test: SPR (Biacore), human CD137 immobilised, bivalent antibody as analyte, 1:1 Langmuir model
T6 construct: also called CD137 coated on the chip surface
Experimental: Human CD137 (R&D systems) was immobilized to the Biacore™ sensor chip, CMS, using conventional amine coupling. […] The association was followed for 5 minutes and the dissociation for 15 minutes. Regeneration was performed twice using 10 mM Glycine pH 1.7 for 30 seconds. The kinetic parameters and the affinity constants were calculated using 1:1 Langmuir model.
The affinities of the antibodies were in the nanomolar to sub-nanomolar range (Table 3) measured using bivalent antibodies flowed over CD137 coated on the chip surface.

[9] = molecular target: T4, cynomolgus CD137 on transfected CHO …; test: flow cytometry on CHO cells transfected with cynomolgus CD137, PE anti-hIgG detection, MFI normalised 0-100% for each antibody
Experimental: as §3, §4

T4 sequence (P25942 other isoform, or with tags, fused parts or gaps): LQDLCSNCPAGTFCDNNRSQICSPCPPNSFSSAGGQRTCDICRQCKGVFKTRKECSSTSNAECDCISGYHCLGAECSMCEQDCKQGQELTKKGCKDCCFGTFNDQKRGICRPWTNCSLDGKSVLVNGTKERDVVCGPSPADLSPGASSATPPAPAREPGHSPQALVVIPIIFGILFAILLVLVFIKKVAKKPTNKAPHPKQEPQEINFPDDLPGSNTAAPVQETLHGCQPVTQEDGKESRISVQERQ
T6 sequence (Q07011 24-186 limits assumed): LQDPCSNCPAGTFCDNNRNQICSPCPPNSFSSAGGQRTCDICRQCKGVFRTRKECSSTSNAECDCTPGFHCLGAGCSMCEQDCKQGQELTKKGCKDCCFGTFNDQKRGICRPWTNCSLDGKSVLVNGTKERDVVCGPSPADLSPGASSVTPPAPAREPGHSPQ
T5 sequence (P25942 other isoform, or with tags, fused parts or gaps limits assumed): as the sequence (P25942 other isoform, or with tags, fused parts or gaps) above, with L4P, S19N, K50R, I66T, S67P, Y69F, E75G, A149V counted along it
T3 sequence (Q07011 24-186 limits assumed): as the sequence (Q07011 24-186 limits assumed) above
T2 sequence (P25942 21-193 limits assumed): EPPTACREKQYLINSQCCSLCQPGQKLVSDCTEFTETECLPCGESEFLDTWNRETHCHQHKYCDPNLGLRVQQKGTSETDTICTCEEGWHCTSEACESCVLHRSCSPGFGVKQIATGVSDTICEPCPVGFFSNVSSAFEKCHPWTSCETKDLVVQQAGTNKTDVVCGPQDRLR

B1: 1630/1631 (antibody, human IgG4 S228P, kappa, V domains shown)
VH: EVQLLESGGGLVQPGGSLRLSCAASGFTFGYSYMSWVRQAPGKGLEWVSSIGSGSSYTYYADSVKGRFTISRDNSKNTLYLQMNSLRAEDTAVYYCARVYSSPGIDYWGQGTLVTVSS
VL: DIQMTQSPSSLSASVGDRVTITCRASQSISSYLNWYQQKPGKAPKLLIYAASSLQSGVPSRFSGSGSGTDFTLTISSLQPEDFATYYCQQYYTWVPFTFGQGTKLEIKR
notes: the format in each assay is not restated
Question: Does B1 bind [1]?
Answer: no binding (tested: 10 µg/ml highest concentration tested)

Question: Does B1 bind [2]?
Answer: no binding (tested: 10 µg/ml highest concentration tested)

Question: What about the EC50 [3] of the same binder?
Answer: 0.27 nM

Question: And the EC50 [4]?
Answer: 0.12 to 0.16 µg/mL

Question: And the EC50 [5]?
Answer: 0.17 to 0.26 µg/mL

Question: What about the EC50 [6] of the same binder?
Answer: 0.55 to 0.87 nM

Question: What about the EC50 [7] of the same binder?
Answer: 0.23 to 0.34 nM

Question: What about the Kd [8] of the same binder?
Answer: 0.641 nM

Question: What about the koff [8] of the same binder?
Answer: 0.00118 s⁻¹

Question: And the kon [8]?
Answer: 1.85e+06 M⁻¹ s⁻¹

Question: And the “EC50 (read off the curve)” value [9]?
Answer: ~0.1 µg/mL
